Test results published in patent publication US20040076995A1, “Nurr1 transcription factor 1-box mutants having monomeric transcriptional activation activity” (priority 2001, published 2004).

Assays:
[1] = system: Nurr1-RXR heterodimer; assay: Nurr1-RXR heterodimer-mediated transactivation, βRE luciferase reporter in JEG3 cells; format: cell-based, human; details: βRE-tk luciferase reporter, RXR ligand SR11237 1 μM, effect of the mutation vs wild-type Nurr1
Procedure: The wild-type and mutated Nurr1 derivatives were transfected in JEG3 cells. The ability to transactivate was assessed using a luciferase reporter gene driven by three copies of the hRARβ2 promoter RARE (βRE) upstream of a thymidine kinase promoter.
The influence of the I-box mutations on Nurr1 transcriptional activity and on the ability to interact with RXR was examined as described by Perlmann and Jansson 1995, Zetterström et al. 1996, and Castro et al. 1999. Nurr1-RXR heterodimer-mediated transactivation was studied in human chorion carcinoma JEG3 cells. The cells were maintained in minimum essential medium supplemented with 10% fetal calf serum. Transfections were performed in quadruplicates in 24-well plates using the calcium phosphate precipitation method. The cells were plated 24 h prior to the transfection. Each well was transfected with 100 ng of the expression vector for the Nurr1 variants, 100 ng of a reporter plasmid, and 200 ng of βgalactoside plasmid that was used as an internal control for transfection efficiency. The luciferase reporter used was driven by three copies of the retinoid acid response element (RARE) of the human retinoid acid receptorβ2 (hRARβ2) gene promoter (βRE) upstream of the thymidine kinase promoter. 6-8 hours after transfection, the cells received fresh medium supplemented with 10% charcoal-stripped fetal calf,serum and RXR ligand (SR11237;1 μM). The cells were harvested 24 hours late and lysed. The cells extracts were assayed for luciferase and βgalactosidase activity. The ability of the Nurr1 mutants to interact with RXR was examined using the mammalian two-hybrid assay. The ligand-binding domains (amino acids 353-598; LBD) of both wild-type and mutated Nurr1 variants were cloned in frame with the yeast Gal4 DNA-binding domain (amino acids 1-147) in the pCMX-Gal4 expression vector (Perlmann and Jansson 1995). JEG3 cells were cotransfected with pCMX-Gal4-Nurr1-LBD derivatives and pCMX-VP16-RXR containing the herpes simplex VP16 trans-activation domain followed by the complete coding sequence of human RXRα. A reporter gene with four copies of the Gal4-binding sites was used.

[2] = system: NGFI-B response element (NBRE) reporter; assay: Monomeric reporter gene activation, NBRE reporter in 293 cells (full-length receptor); format: cell-based, human; details: three copies of NBRE reporter, effect of the mutation vs wild-type Nurr1
Procedure: The monomeric activity was examined in 293 cells. The full-length receptor derivatives were studied using a reporter gene regulated by three copies of the NGFI-B binding site (NBRE; FIG. A).
The ability of the mutants to activate reporter gene expression as monomers were studied in human embryonic kidney 293 cells. The cells were maintained in Dulbecco's modified Eagles medium with 10% fetal calf serum. Transfections were carried out as with JEG3 cells except that a reporter regulated by three copies of the NGFI-B (nerve growth factor inducible-B)response element (Wilson et al., 1991) (NBREs) was used. The transcriptional activities of the mutated ligand-binding domains were assessed as fusions to the Gal4 DNA-binding domain and a reporter gene with four copies of the Gal4-binding sites was used. All the transfection experiments were performed in quadruplicate dishes and each experiment has been repeated at least twice with essentially identical results. The results of a representative experiment are shown.

| Molecule | ability of Nurr1 to promote RXR-mediated transactivation [1] | ability to activate reporter gene expression as monomers (monomeric activity) [2] |
| --- | --- | --- |
| KLL(554-556)AAA: mouse Nurr1 I-box mutant, residues Lys554-Leu555-Leu556 substituted by three alanines (protein) MPCVQAQYGSSPQGASPASQSYSYHSSGEYSSDFLTPEFVKFSMDLTNTEITATTSLPSFSTFMDNYSTGYDVKPPCLYQMPLSGQQSSIKVEDIQMHNYQQHSHLPPQSEEMMPHSGSVYYKPSSPPTPSTPSFQVQHSPMWDDPGSLHNFHQNYVATTHMIEQRKTPVSRLSLFSFKQSPPGTPVSSCQMRFDGPLHVPMNPEPAGSHHVVDGQTFAVPNPIRKPASMGFPGLQIGHASQLLDTQVPSPPSRGSPSNEGLCAVCGDNAACQHYGVRTCEGCKGFFKRTVQKNAKYVCLANKNCPVDKRRRNRCQYCRFQKCLAVGMVKEVVRTDSLKGRRGRLPSKPKSPQDPSPPSPPVSLISALVRAHVDSNPAMTSLDYSRFQANPDYQMSGDDTQHIQQFYDLLTGSMEIIRGWAEKIPGFADLPKADQDLLFESAFLELFVLRLAYRSNPVEGKLIFCNGVVLHRLQCVRGFGEWIDSIVEFSSNLQNMNIDISAFSCIAALAMVTERHGLKEPKRVEELQNKIVNCLKDHVTFNNGGLNRPNYLSAAAGKLPELRTLCTQGLQRIFYLKLEDLVPPPAIIDKLFLDTLPF | abolished | intact |
| GKL(557-559)AAA: mouse Nurr1 I-box mutant, residues 557-559 (GKL) substituted by three alanines (protein) MPCVQAQYGSSPQGASPASQSYSYHSSGEYSSDFLTPEFVKFSMDLTNTEITATTSLPSFSTFMDNYSTGYDVKPPCLYQMPLSGQQSSIKVEDIQMHNYQQHSHLPPQSEEMMPHSGSVYYKPSSPPTPSTPSFQVQHSPMWDDPGSLHNFHQNYVATTHMIEQRKTPVSRLSLFSFKQSPPGTPVSSCQMRFDGPLHVPMNPEPAGSHHVVDGQTFAVPNPIRKPASMGFPGLQIGHASQLLDTQVPSPPSRGSPSNEGLCAVCGDNAACQHYGVRTCEGCKGFFKRTVQKNAKYVCLANKNCPVDKRRRNRCQYCRFQKCLAVGMVKEVVRTDSLKGRRGRLPSKPKSPQDPSPPSPPVSLISALVRAHVDSNPAMTSLDYSRFQANPDYQMSGDDTQHIQQFYDLLTGSMEIIRGWAEKIPGFADLPKADQDLLFESAFLELFVLRLAYRSNPVEGKLIFCNGVVLHRLQCVRGFGEWIDSIVEFSSNLQNMNIDISAFSCIAALAMVTERHGLKEPKRVEELQNKIVNCLKDHVTFNNGGLNRPNYLSKLLAAAPELRTLCTQGLQRIFYLKLEDLVPPPAIIDKLFLDTLPF | abolished | intact |
| PEL(560-562.)AAA: mouse Nurr1 I-box mutant, residues 560-562 (PEL) substituted by three alanines (protein) MPCVQAQYGSSPQGASPASQSYSYHSSGEYSSDFLTPEFVKFSMDLTNTEITATTSLPSFSTFMDNYSTGYDVKPPCLYQMPLSGQQSSIKVEDIQMHNYQQHSHLPPQSEEMMPHSGSVYYKPSSPPTPSTPSFQVQHSPMWDDPGSLHNFHQNYVATTHMIEQRKTPVSRLSLFSFKQSPPGTPVSSCQMRFDGPLHVPMNPEPAGSHHVVDGQTFAVPNPIRKPASMGFPGLQIGHASQLLDTQVPSPPSRGSPSNEGLCAVCGDNAACQHYGVRTCEGCKGFFKRTVQKNAKYVCLANKNCPVDKRRRNRCQYCRFQKCLAVGMVKEVVRTDSLKGRRGRLPSKPKSPQDPSPPSPPVSLISALVRAHVDSNPAMTSLDYSRFQANPDYQMSGDDTQHIQQFYDLLTGSMEIIRGWAEKIPGFADLPKADQDLLFESAFLELFVLRLAYRSNPVEGKLIFCNGVVLHRLQCVRGFGEWIDSIVEFSSNLQNMNIDISAFSCIAALAMVTERHGLKEPKRVEELQNKIVNCLKDHVTFNNGGLNRPNYLSKLLGKLAAARTLCTQGLQRIFYLKLEDLVPPPAIIDKLFLDTLPF | abolished | intact |
| K558A: mouse Nurr1 I-box mutant, Lys558 substituted by alanine (protein) MPCVQAQYGSSPQGASPASQSYSYHSSGEYSSDFLTPEFVKFSMDLTNTEITATTSLPSFSTFMDNYSTGYDVKPPCLYQMPLSGQQSSIKVEDIQMHNYQQHSHLPPQSEEMMPHSGSVYYKPSSPPTPSTPSFQVQHSPMWDDPGSLHNFHQNYVATTHMIEQRKTPVSRLSLFSFKQSPPGTPVSSCQMRFDGPLHVPMNPEPAGSHHVVDGQTFAVPNPIRKPASMGFPGLQIGHASQLLDTQVPSPPSRGSPSNEGLCAVCGDNAACQHYGVRTCEGCKGFFKRTVQKNAKYVCLANKNCPVDKRRRNRCQYCRFQKCLAVGMVKEVVRTDSLKGRRGRLPSKPKSPQDPSPPSPPVSLISALVRAHVDSNPAMTSLDYSRFQANPDYQMSGDDTQHIQQFYDLLTGSMEIIRGWAEKIPGFADLPKADQDLLFESAFLELFVLRLAYRSNPVEGKLIFCNGVVLHRLQCVRGFGEWIDSIVEFSSNLQNMNIDISAFSCIAALAMVTERHGLKEPKRVEELQNKIVNCLKDHVTFNNGGLNRPNYLSKLLGALPELRTLCTQGLQRIFYLKLEDLVPPPAIIDKLFLDTLPF | only a modest effect | – |
| L562A: mouse Nurr1 I-box mutant, Leu562 substituted by alanine (protein) MPCVQAQYGSSPQGASPASQSYSYHSSGEYSSDFLTPEFVKFSMDLTNTEITATTSLPSFSTFMDNYSTGYDVKPPCLYQMPLSGQQSSIKVEDIQMHNYQQHSHLPPQSEEMMPHSGSVYYKPSSPPTPSTPSFQVQHSPMWDDPGSLHNFHQNYVATTHMIEQRKTPVSRLSLFSFKQSPPGTPVSSCQMRFDGPLHVPMNPEPAGSHHVVDGQTFAVPNPIRKPASMGFPGLQIGHASQLLDTQVPSPPSRGSPSNEGLCAVCGDNAACQHYGVRTCEGCKGFFKRTVQKNAKYVCLANKNCPVDKRRRNRCQYCRFQKCLAVGMVKEVVRTDSLKGRRGRLPSKPKSPQDPSPPSPPVSLISALVRAHVDSNPAMTSLDYSRFQANPDYQMSGDDTQHIQQFYDLLTGSMEIIRGWAEKIPGFADLPKADQDLLFESAFLELFVLRLAYRSNPVEGKLIFCNGVVLHRLQCVRGFGEWIDSIVEFSSNLQNMNIDISAFSCIAALAMVTERHGLKEPKRVEELQNKIVNCLKDHVTFNNGGLNRPNYLSKLLGKLPEARTLCTQGLQRIFYLKLEDLVPPPAIIDKLFLDTLPF | reduced | – |
| E561A: mouse Nurr1 I-box mutant, Glu561 substituted by alanine (protein) MPCVQAQYGSSPQGASPASQSYSYHSSGEYSSDFLTPEFVKFSMDLTNTEITATTSLPSFSTFMDNYSTGYDVKPPCLYQMPLSGQQSSIKVEDIQMHNYQQHSHLPPQSEEMMPHSGSVYYKPSSPPTPSTPSFQVQHSPMWDDPGSLHNFHQNYVATTHMIEQRKTPVSRLSLFSFKQSPPGTPVSSCQMRFDGPLHVPMNPEPAGSHHVVDGQTFAVPNPIRKPASMGFPGLQIGHASQLLDTQVPSPPSRGSPSNEGLCAVCGDNAACQHYGVRTCEGCKGFFKRTVQKNAKYVCLANKNCPVDKRRRNRCQYCRFQKCLAVGMVKEVVRTDSLKGRRGRLPSKPKSPQDPSPPSPPVSLISALVRAHVDSNPAMTSLDYSRFQANPDYQMSGDDTQHIQQFYDLLTGSMEIIRGWAEKIPGFADLPKADQDLLFESAFLELFVLRLAYRSNPVEGKLIFCNGVVLHRLQCVRGFGEWIDSIVEFSSNLQNMNIDISAFSCIAALAMVTERHGLKEPKRVEELQNKIVNCLKDHVTFNNGGLNRPNYLSKLLGKLPALRTLCTQGLQRIFYLKLEDLVPPPAIIDKLFLDTLPF | no effect | – |
